# Results as given in patent US20160193299A1, “MODIFIED NUCLEOSIDE, NUCLEOTIDE, AND NUCLEIC ACID COMPOSITIONS” (Moderna Therapeutics, Inc., priority 2011, published 2016).
# Tests used:
# [1] = tested on: G-CSF; assay: Example 17 LNP in vivo study IV/IM/SC, serum G-CSF ELISA; settings: rats, 0.05 mg/kg
# Description: Formulations, listed in Table 31, were characterized by particle size, zeta potential, and encapsulation.
# LNP formulations, shown in Table 31 (above), were administered to rats (n=5) intravenously (IV), intramuscularly (IM) or subcutaneously (SC) at a single modified mRNA dose of 0.05 mg/kg. A control group of rats (n=4) was untreated. […] The rats administered EPO modified mRNA intravenously were also bled at 7 days.
# [2] = tested on: red blood cell (RBC); assay: Example 22 non-human primate study, red blood cell (RBC) count; assay type: in vivo, cynomolgus monkey
# Description: (§1) LNP formulations, shown in Table 31 (above), were administered to non-human primates (NHP) (cynomolgus monkey) (n=2) as intravenous injection (IV). The NHP were administered a single modified mRNA IV dose of 0.5 mg/kg, 0.05 mg/kg or 0.005 mg/kg of G-CSF or EPO in a dose volume of 0.5 mL/kg. The NHPs were bled before dosing with the modified mRNA LNP formulations to determine protein expression in the serum and a baseline complete blood count. After administration with the G-CSF modified mRNA formulation the NHP were bled at 8, 24, 48 and 72 hours to determined protein expression. After administration with the EPO modified mRNA formulation the NHP were bled at 8, 24, 48, 72 hours and 7 days to determined protein expression.
# [3] = tested on: reticulocytes; assay: Example 22 non-human primate study, reticulocyte count; assay type: in vivo, cynomolgus monkey; settings: Table 39, Female NHP
# Description: as §1
# Samples collected from the NHPs after they were administered with G-CSF or EPO modified mRNA formulations were analyzed by ELISA to determine protein expression. Neutrophil and reticulocyte count was also determined pre-dose, 24 hours, 3 days, 7 days, 14 days and 18 days after administration of the modified G-CSF or EPO formulation.
molecule,measurement,setting,value
"G-CSF: human G-CSF mRNA SEQ ID NO: 6, polyA ~160 nt, Cap1, fully modified with 5-methylcytosine and pseudouridine (nucleic acid, listed as Homo sapiens, polyA ~160, Cap1, 5mC/pseudouridine modified) GGGAAAUAAGAGAGAAAAGAAGAGUAAGAAGAAAUAUAAGAGCCACCAUGGCCGGUCCCGCGACCCAAAGCCCCAUGAAACUUAUGGCCCUGCAGUUGCUGCUUUGGCACUCGGCCCUCUGGACAGUCCAAGAAGCGACUCCUCUCGGACCUGCCUCAUCGUUGCCGCAGUCAUUCCUUUUGAAGUGUCUGGAGCAGGUGCGAAAGAUUCAGGGCGAUGGAGCCGCACUCCAAGAGAAGCUCUGCGCGACAUACAAACUUUGCCAUCCCGAGGAGCUCGUACUGCUCGGGCACAGCUUGGGGAUUCCCUGGGCUCCUCUCUCGUCCUGUCCGUCGCAGGCUUUGCAGUUGGCAGGGUGCCUUUCCCAGCUCCACUCCGGUUUGUUCUUGUAUCAGGGACUGCUGCAAGCCCUUGAGGGAAUCUCGCCAGAAUUGGGCCCGACGCUGGACACGUUGCAGCUCGACGUGGCGGAUUUCGCAACAACCAUCUGGCAGCAGAUGGAGGAACUGGGGAUGGCACCCGCGCUGCAGCCCACGCAGGGGGCAAUGCCGGCCUUUGCGUCCGCGUUUCAGCGCAGGGCGGGUGGAGUCCUCGUAGCGAGCCACCUUCAAUCAUUUUUGGAAGUCUCGUACCGGGUGCUGAGACAUCUUGCGCAGCCGUGAAGCGCUGCCUUCUGCGGGGCUUGCCUUCUGGCCAUGCCCUUCUUCUCUCCCUUGCACCUGUACCUCUUGGUCUUUGAAUAAAGCCUGAGUAGGAAG",G-CSF Serum Concentration,"[1]; IM, 2 hours",1620.4 pg/mL
same,G-CSF Serum Concentration,"[1]; IM, 8 hours",7910.4 pg/mL
same,G-CSF Serum Concentration,"[1]; IM, 24 hours",893.3 pg/mL
same,G-CSF Serum Concentration,"[1]; IM, 48 hours",OSC
same,G-CSF Serum Concentration,"[1]; IM, 5 days",OSC
same,G-CSF detectable to,[1]; IV,7 days
same,G-CSF Serum Concentration,"[1]; IV, 2 hours","31,331.9 pg/ml"
same,G-CSF Serum Concentration,"[1]; IV, 8 hours","70,532.4 pg/ml"
same,G-CSF Serum Concentration,"[1]; IV, 24 hours","5,738.6 pg/ml"
same,G-CSF Serum Concentration,"[1]; IV, 48 hours",233.8 pg/mL
same,G-CSF Serum Concentration,"[1]; IV, 5 days",60.4 pg/mL
same,G-CSF Serum Concentration,"[1]; SC, 2 hours",80.3 pg/mL
same,G-CSF Serum Concentration,"[1]; SC, 8 hours",164.2 pg/mL
same,G-CSF Serum Concentration,"[1]; SC, 24 hours",OSC
same,G-CSF Serum Concentration,"[1]; SC, 48 hours",OSC
same,G-CSF Serum Concentration,"[1]; SC, 5 days",OSC
same,G-CSF detectable to at least,[1]; subcutaneous and intramuscular,at least 8 hours
same,RBC,"[2]; Female NHP, 0.005 mg/kg, 14/18 days",5.34 10^12/L
same,RBC,"[2]; Female NHP, 0.005 mg/kg, 24 hours",5.35 10^12/L
same,RBC,"[2]; Female NHP, 0.005 mg/kg, 3 days",5.24 10^12/L
same,RBC,"[2]; Female NHP, 0.005 mg/kg, 7 days",5.34 10^12/L
same,RBC,"[2]; Female NHP, 0.005 mg/kg, Pre-dose",5.36 10^12/L
same,RBC,"[2]; Female NHP, 0.05 mg/kg, 14/18 days",5.26 10^12/L
same,RBC,"[2]; Female NHP, 0.05 mg/kg, 24 hours",5.08 10^12/L
same,RBC,"[2]; Female NHP, 0.05 mg/kg, 3 days",5.04 10^12/L
same,RBC,"[2]; Female NHP, 0.05 mg/kg, 7 days",5.05 10^12/L
same,RBC,"[2]; Female NHP, 0.05 mg/kg, Pre-dose",5.64 10^12/L
same,RBC,"[2]; Female NHP, 0.5 mg/kg, 14/18 days",4.92 10^12/L
same,RBC,"[2]; Female NHP, 0.5 mg/kg, 24 hours",4.96 10^12/L
same,RBC,"[2]; Female NHP, 0.5 mg/kg, 3 days",4.97 10^12/L
same,RBC,"[2]; Female NHP, 0.5 mg/kg, 7 days",5.04 10^12/L
same,RBC,"[2]; Female NHP, 0.5 mg/kg, Pre-dose",5.57 10^12/L
same,RBC,"[2]; Male NHP, 0.005 mg/kg, 14/18 days",5.37 10^12/L
same,RBC,"[2]; Male NHP, 0.005 mg/kg, 24 hours",5.34 10^12/L
same,RBC,"[2]; Male NHP, 0.005 mg/kg, 3 days",5.32 10^12/L
same,RBC,"[2]; Male NHP, 0.005 mg/kg, 7 days",5.25 10^12/L
same,RBC,"[2]; Male NHP, 0.005 mg/kg, Pre-dose",5.67 10^12/L
same,RBC,"[2]; Male NHP, 0.05 mg/kg, 14/18 days",5.43 10^12/L
same,RBC,"[2]; Male NHP, 0.05 mg/kg, 24 hours",4.96 10^12/L
same,RBC,"[2]; Male NHP, 0.05 mg/kg, 3 days",5.13 10^12/L
same,RBC,"[2]; Male NHP, 0.05 mg/kg, 7 days",5.17 10^12/L
same,RBC,"[2]; Male NHP, 0.05 mg/kg, Pre-dose",5.68 10^12/L
same,RBC,"[2]; Male NHP, 0.5 mg/kg, 14/18 days",4.21 10^12/L
same,RBC,"[2]; Male NHP, 0.5 mg/kg, 24 hours",4.66 10^12/L
same,RBC,"[2]; Male NHP, 0.5 mg/kg, 3 days",4.91 10^12/L
same,RBC,"[2]; Male NHP, 0.5 mg/kg, 7 days",4.8 10^12/L
same,RBC,"[2]; Male NHP, 0.5 mg/kg, Pre-dose",5.57 10^12/L
same,Reticulocyte count,"[3]; 0.005 mg/kg, 14/18 days",0.057 10^12/L
same,Reticulocyte count,"[3]; 0.005 mg/kg, 24 hours",0.07 10^12/L
same,Reticulocyte count,"[3]; 0.005 mg/kg, 3 days",0.054 10^12/L
same,Reticulocyte count,"[3]; 0.005 mg/kg, 7 days",0.066 10^12/L
same,Reticulocyte count,"[3]; 0.005 mg/kg, Pre-dose",0.06 10^12/L
same,Reticulocyte count,"[3]; 0.05 mg/kg, 14/18 days",0.06 10^12/L
same,Reticulocyte count,"[3]; 0.05 mg/kg, 24 hours",0.046 10^12/L
